Target: T1, wild-type yeast Ugp1
T1 chain: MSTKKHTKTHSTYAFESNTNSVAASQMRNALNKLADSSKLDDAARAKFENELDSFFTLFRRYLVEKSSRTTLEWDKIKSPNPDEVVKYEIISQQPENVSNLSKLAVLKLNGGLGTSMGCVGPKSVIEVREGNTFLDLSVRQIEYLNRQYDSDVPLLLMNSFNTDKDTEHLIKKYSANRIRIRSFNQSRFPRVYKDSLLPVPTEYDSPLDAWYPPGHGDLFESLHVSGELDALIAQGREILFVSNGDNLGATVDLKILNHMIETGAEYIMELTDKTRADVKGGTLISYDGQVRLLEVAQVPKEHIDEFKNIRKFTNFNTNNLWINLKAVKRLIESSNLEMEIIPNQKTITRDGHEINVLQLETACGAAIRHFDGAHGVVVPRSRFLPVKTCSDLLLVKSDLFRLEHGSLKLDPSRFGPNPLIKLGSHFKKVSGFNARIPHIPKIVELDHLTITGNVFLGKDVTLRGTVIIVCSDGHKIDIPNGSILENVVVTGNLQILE

B1: human PASK (protein)
chain: MEDGGLTAFEEDQRCLSQSLPLPVSAEGPAAQTTAEPSRSFSSAHRHLSRRNGLSRLCQSRTALSEDRWSSYCLSSLAAQNICTSKLHCPAAPEHTDPSEPRGSVSCCSLLRGLSSGWSSPLLPAPVCNPNKAIFTVDAKTTEILVANDKACGLLGYSSQDLIGQKLTQFFLRSDSDVVEALSEEHMEADGHAAVVFGTVVDIISRSGEKIPVSVWMKRMRQERRLCCVVVLEPVERVSTWVAFQSDGTVTSCDSLFAHLHGYVSGEDVAGQHITDLIPSVQLPPSGQHIPKNLKIQRSVGRARDGTTFPLSLKLKSQPSSEEATTGEAAPVSGYRASVWVFCTISGLITLLPDGTIHGINHSFALTLFGYGKTELLGKNITFLIPGFYSYMDLAYNSSLQLPDLASCLDVGNESGCGERTLDPWQGQDPAEGGQDPRINVVLAGGHVVPRDEIRKLMESQDIFTGTQTELIAGGQLLSCLSPQPAPGVDNVPEGSLPVHGEQALPKDQQITALGREEPVAIESPGQDLLGESRSEPVDVKPFASCEDSEAPVPAEDGGSDAGMCGLCQKAQLERMGVSGPSGSDLWAGAAVAKPQAKGQLAGGSLLMHCPCYGSEWGLWWRSQDLAPSPSGMAGLSFGTPTLDEPWLGVENDREELQTCLIKEQLSQLSLAGALDVPHAELVPTECQAVTAPVSSCDLGGRDLCGGCTGSSSACYALATDLPGGLEAVEAQEVDVNSFSWNLKELFFSDQTDQTSSNCSCATSELRETPSSLAVGSDPDVGSLQEQGSCVLDDRELLLLTGTCVDLGQGRRFRESCVGHDPTEPLEVCLVSSEHYAASDRESPGHVPSTLDAGPEDTCPSAEEPRLNVQVTSTPVIVMRGAAGLQREIQEGAYSGSCYHRDGLRLSIQFEVRRVELQGPTPLFCCWLVKDLLHSQRDSAARTRLFLASLPGSTHSTAAELTGPSLVEVLRARPWFEEPPKAVELEGLAACEGEYSQKYSTMSPLGSGAFGFVWTAVDKEKNKEVVVKFIKKEKVLEDCWIEDPKLGKVTLEIAILSRVEHANIIKVLDIFENQGFFQLVMEKHGSGLDLFAFIDRHPRLDEPLASYIFRQLVSAVGYLRLKDIIHRDIKDENIVIAEDFTIKLIDFGSAAYLERGKLFYTFCGTIEYCAPEVLMGNPYRGPELEMWSLGVTLYTLVFEENPFCELEETVEAAIHPPYLVSKELMSLVSGLLQPVPERRTTLEKLVTDPWVTQPVNLADYTWEEVFRVNKPESGVLSAASLEMGNRSLSDVAQAQELCGGPVPGEAPNGQGCLHPGDPRLLTS
- Ugp1 phosphorylation (Western blot with phospho-specific Ugp1 antibody): transfected with human PASK and wild-type yeast Ugp1 (to promote phosphorylation) (lane 1) ... the phospho-Ugp1 band in lane 1

Reference: US20140377774
